What was measured:
c-CDCP1 = assay: BLI (Octet RED384)
[1] = biological target: T1, cleaved human CDCP1 on the cell surface (endogenous, PDAC cells) (human) (UniProt Q9H5V8); assay: dose-response flow cytometry on PL45 cells; PL45 cells
T1 sequence 1: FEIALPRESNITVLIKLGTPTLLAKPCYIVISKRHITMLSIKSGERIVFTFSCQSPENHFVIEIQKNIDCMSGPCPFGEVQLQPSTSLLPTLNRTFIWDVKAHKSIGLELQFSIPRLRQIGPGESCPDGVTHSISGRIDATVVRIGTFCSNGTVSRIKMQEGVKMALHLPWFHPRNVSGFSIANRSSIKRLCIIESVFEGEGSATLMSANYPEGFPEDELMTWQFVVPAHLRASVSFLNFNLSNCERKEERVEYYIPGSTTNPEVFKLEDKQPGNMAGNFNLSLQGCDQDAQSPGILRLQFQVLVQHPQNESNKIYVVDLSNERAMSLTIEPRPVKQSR
T1 sequence 2: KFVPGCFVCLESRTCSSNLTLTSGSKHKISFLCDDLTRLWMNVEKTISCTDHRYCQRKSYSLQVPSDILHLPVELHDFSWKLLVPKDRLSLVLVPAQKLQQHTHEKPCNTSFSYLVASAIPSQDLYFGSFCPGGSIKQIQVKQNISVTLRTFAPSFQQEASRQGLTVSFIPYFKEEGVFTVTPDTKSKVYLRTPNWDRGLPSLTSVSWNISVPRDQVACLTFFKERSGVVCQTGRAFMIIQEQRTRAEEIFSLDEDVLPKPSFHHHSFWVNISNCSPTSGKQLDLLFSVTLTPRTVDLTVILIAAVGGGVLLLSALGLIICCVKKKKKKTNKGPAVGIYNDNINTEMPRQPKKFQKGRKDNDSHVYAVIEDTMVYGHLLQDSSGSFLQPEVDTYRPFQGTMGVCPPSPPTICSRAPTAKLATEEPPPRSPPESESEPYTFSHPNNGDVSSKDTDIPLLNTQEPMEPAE

Kd (c-CDCP1): 0.15 to 0.84 nM | EC50 [1]: 20.7 nM
B1: CL03 IgG (antibody, V domains shown)
VH: EVQLVESGGGLVQPGGSLRLSCAASGFNFSSYSIHWVRQAPGKGLEWVASIYPYSGSTYYADSVKGRFTISADTSKNTAYLQMNSLRAEDTAVYYCARQSHSYYSHTWWVSYGMDYWGQGTLVTVSS
VL: DIQMTQSPSSLSASVGDRVTITCRASQSVSSAVAWYQQKPGKAPKLLIYSASSLYSGVPSRFSGSRSGTDFTLTISSLQPEDFATYYCQQSGQRPITFGQGTKVEIKR
notes: also called IgG CL03
